± gives the uncertainty stated by the source.

A short description of this data set: amyloid nucleation score (Sup35N fusion, yeast selection) (log enrichment); library NNK2; higher = more nucleation; inactive = no reads after selection. The procedure, abridged: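 Peptides of 20 random codons, each fused to Sup35N, were expressed in psi-negative yeast. Cells were induced with 100 μM copper sulfate for 24 hours and grown 7 days at 30°C on medium lacking adenine and uracil, and plasmid inserts before and after selection were Illumina-sequenced. Nucleation scores are DiMSum log enrichments of output over input reads, centred on the mode score of non-aggregating sequences, and sequences under 100 input reads were excluded.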

The substance INFGWCFYMTRRWVCGMVFR displayed an amyloid nucleation score of 0.106 ± 1.

DIARDLVWGLRSNAGAQLGN displayed an amyloid nucleation score of 0.54 ± 0.44.

Take STLVDGGTGYMCYFFAWHQS: the amyloid nucleation score entry is “inactive”.

With ICWHV, the amyloid nucleation score was -0.277 ± 1.1.

For MFVRRKSVSMVEYWE, the amyloid nucleation score stood at 0.054 ± 0.32.

On to NCKMVMIGCDRNYL, for which the amyloid nucleation score is -1.37 ± 1.1.

WVYLRVFAHKKRAALSWAYS showed an amyloid nucleation score of -0.077 ± 0.34.

AFTSLPLCYSVYGKIKFCPC came in with an amyloid nucleation score of 0.433 ± 0.62.

VRWTTFRECWAGYGGYVIGR yielded an amyloid nucleation score of 1.19 ± 0.17.

In the case of KLGVKLASTLGISRLPHTTS, the amyloid nucleation score worked out at 0.827 ± 0.23.

On to CMAIDLPVHYS, for which the amyloid nucleation score came to 0.005 ± 0.55.

In turn, LLSVASRLLVPFRERGNGS yielded an amyloid nucleation score of -0.256 ± 1.1.

Consider SFVLIKIMILLCDAVYGH, for which the amyloid nucleation score came to 3.58 ± 0.054.

SVGSGPVSSLRRKHDRGDTP had an amyloid nucleation score of 0.253 ± 0.35.

Consider GTFKDGMDSA, for which the amyloid nucleation score stood at 3.75 ± 0.14.

Consider CPHGCIQTARYQQ, for which the amyloid nucleation score was determined as 1.19 ± 0.42.

For NLSWLVNWMEYVRGRLW, the amyloid nucleation score was -0.56 ± 0.4.

As to AYHDYLSRGGTHVVVCYYLS, the amyloid nucleation score entry is “inactive”.

In turn, NWFHVRTDCRRWGGRKVYYN yielded an amyloid nucleation score of -0.883 ± 1.1.

In turn, GDFVGMLYNRCGHHMVIILT yielded an amyloid nucleation score of -0.731 ± 0.35.

HIDNVGVLR gave an amyloid nucleation score of 1.18 ± 0.28.

In turn, VENLRNTIPKKEIGFSSVTG returned an amyloid nucleation score of -0.105 ± 0.3.

Turning to RYGFSVSITMIFYRGGFCRW, the amyloid nucleation score result was “inactive”.

Substance CSVNNSSLCIVVVAWFCGLD came in with an amyloid nucleation score of 0.711 ± 0.45.

RHRCSI had an amyloid nucleation score of -0.059 ± 0.39.

Substance NTLLILHIDICYVYSVILTF showed an amyloid nucleation score of -0.942 ± 0.76.

As to TSNNVCCARHPI, the amyloid nucleation score came to 1.37 ± 0.29.

In the case of ADWQYHSVYMNTVRDKCLAQ, the amyloid nucleation score was -0.06 ± 0.28.

LQCYPWIYGGSGHPYRFWNL: the amyloid nucleation score is -0.331 ± 0.8.

For RSLGVSAL, the amyloid nucleation score entry is “inactive”.

As to QMGCWLGLLVDSLYLSWLVT, the amyloid nucleation score is -0.2 ± 0.43.

For the substance CNVASFELVLRD, the amyloid nucleation score entry was “inactive”.

In turn, LYRLSFSLFWERNRVHSFIR gave an amyloid nucleation score of -0.232 ± 1.1.

Regarding ACTVWIMLRDSCWKARDRSG, the amyloid nucleation score turned out to be 2.95 ± 0.082.

Consider NLFYKKSLRLCYGLLQLRDF, for which the amyloid nucleation score result was “inactive”.

In turn, SWATLRVCNIFCMITCSYFM came in with an amyloid nucleation score of 1.51 ± 0.15.

For the substance LYAVRPLTVGTKCYMMRGLL, the amyloid nucleation score was -1.59 ± 0.49.

As for MSSQKWADKVPWEFVCGCFD, the amyloid nucleation score amounted to 0.01 ± 0.65.

For the substance NKFKG, the amyloid nucleation score is 0.19 ± 1.1.

Turning to MFSSMSVLCKYILASWASHK, the amyloid nucleation score is -0.58 ± 0.63.

For the substance VYYSNTTTRSCSEMQVVFFF, the amyloid nucleation score was -1.13 ± 0.41.

DHRRCDSMRTDC yielded an amyloid nucleation score of 0.098 ± 1.

Regarding EIQHRNTAYYRSVSVGPTAV, the amyloid nucleation score came to 0.987 ± 0.67.

The substance SPHLGLMCK had an amyloid nucleation score of 0.416 ± 0.8.

Substance FSLGQKLLFCFCEVCWLNVA yielded an amyloid nucleation score of 2.97 ± 0.1.

Take VYIIVFRIWLPLHFWSSTLM: the amyloid nucleation score is -0.354 ± 0.56.

Substance RNFDRGWSHR registered an amyloid nucleation score of 0.319 ± 0.4.

In turn, MKYLIVCDFCGLYSPCGFCF gave an amyloid nucleation score of 7.808 ± 0.037.

In the case of CLYFFLSYRSCCINVFLGFC, the amyloid nucleation score is -0.326 ± 1.

ISFWSHSDTFVGNEGEHSVR registered an amyloid nucleation score of 1.29 ± 0.42.

As to ILAYPFRCIETNSLLKMSPL, the amyloid nucleation score was found to be 0.402 ± 0.8.

On to QLCAMKMDSRIFCVSCFTML, for which the amyloid nucleation score came to 7.049 ± 0.056.

In the case of SKCIASFNLRSYCMSRLASS, the amyloid nucleation score is -1.15 ± 1.1.

Take GLTVHTVWLA: the amyloid nucleation score worked out at 0.189 ± 0.4.

In turn, HVVVDSSVVAGCFTVFCRGI returned an amyloid nucleation score of 8.265 ± 0.046.

On to SFHFCWFRYNWCYFGLS, for which the amyloid nucleation score amounted to 0.058 ± 1.

Turning to LYHETAENSSRTQTTRRWSF, the amyloid nucleation score was -0.321 ± 1.

In the case of CFAGLFLLSSEFFYRLTSRR, the amyloid nucleation score stood at 1.58 ± 0.12.

With FVFYSEEGLGHDLSNFTGGI, the amyloid nucleation score result was “inactive”.

The substance VGSNKGAIIGLMIVGGVVIA registered an amyloid nucleation score of 3.11 ± 0.16.

With VGKVFLIPGSFYEIRLMTYF, the amyloid nucleation score was 1.62 ± 0.13.

The substance YESHLCVFTCWTFRFLNVMD yielded an amyloid nucleation score of -1.01 ± 1.1.

As to NFMGIIVLNQ, the amyloid nucleation score is 3.19 ± 0.09.

Consider HLFVASYDKRVECFLSVKGE, for which the amyloid nucleation score entry was “inactive”.

SVVLYMLVLLDADLSVKTRD came in with an amyloid nucleation score of 2.52 ± 0.06.

TNHYSSVRS gave an amyloid nucleation score of -0.195 ± 0.54.

For GLLVSGMINWYRVFIRNILL, the amyloid nucleation score was -0.606 ± 0.38.

Take GLAEYRS: the amyloid nucleation score is -0.488 ± 0.64.

On to SIQCMISWQDRDNVEACKVE, for which the amyloid nucleation score came to 0.346 ± 0.21.

On to DPITFEVSCNANVIDPNSLV, for which the amyloid nucleation score was -1.22 ± 0.38.

SSYLGMENQRLMRKESGCCL showed an amyloid nucleation score of 0.09 ± 0.41.

In the case of FMLQVVGRVEVFH, the amyloid nucleation score is 3.32 ± 0.066.

TSLMRYIPMGHLKAWIFLSI came in with an amyloid nucleation score of 0.049 ± 1.1.

DEIVSERDIVSSNRLCGSIM gave an amyloid nucleation score of -0.561 ± 1.1.

In the case of FQNGQDGYGESLV, the amyloid nucleation score is -0.898 ± 1.1.

VPVFFGPFQYT displayed an amyloid nucleation score of -0.419 ± 0.63.

Substance QWVDQVYIAETIVPLSNKVV registered an amyloid nucleation score of -0.398 ± 1.

Regarding FSNIVNCSDRCATCVYFEFV, the amyloid nucleation score was determined as 4.808 ± 0.047.

In the case of LMLLYIRSKYGEFVWIPKVH, the amyloid nucleation score is -0.021 ± 0.54.

Substance VDLGLLKKTNFTQLYFGDC yielded an amyloid nucleation score of 0.317 ± 0.16.

Substance SQKLSIQYQLRYFILLVKPR registered an amyloid nucleation score of -0.704 ± 0.5.

As to LTFGCG, the amyloid nucleation score was -0.903 ± 0.36.

Turning to YIWLDAYFTESGILYYLMIR, the amyloid nucleation score entry was “inactive”.

Substance VMNVNSCGWVVRHNR came in with an amyloid nucleation score of 4.97 ± 0.1.

Substance GSGSVAEIMRNVFLVCSW registered an amyloid nucleation score of -0.115 ± 0.34.

In the case of QTYIFFICLVVGMYIVCGKH, the amyloid nucleation score is -0.17 ± 0.45.

The substance RYRELVGVKCMV returned an amyloid nucleation score of 0.978 ± 0.74.

In turn, VGEKCDL came in with an amyloid nucleation score of -0.023 ± 0.55.

LARGCFAFN displayed an amyloid nucleation score of -0.363 ± 1.

YSHATFSPASNSYQKG registered an amyloid nucleation score of 0.146 ± 0.56.

On to SRLVVRN, for which the amyloid nucleation score entry was “inactive”.

The substance LRKPSTIFEHDAKNSRV had an amyloid nucleation score of -0.67 ± 0.79.

As to LGTNMAMVGSN, the amyloid nucleation score is -0.623 ± 0.27.

In turn, LFSLPPCFN showed an amyloid nucleation score of 1.5 ± 0.11.

For the substance TYEIFLVPS, the amyloid nucleation score turned out to be 0.41 ± 0.74.

For EYLRPSWSH, the amyloid nucleation score is -0.971 ± 0.56.

Consider AGASSRKWGLYDVYVERSEA, for which the amyloid nucleation score entry is “inactive”.

Consider TYQFMHVRLFRPMTSFIVYG, for which the amyloid nucleation score was determined as 0.36 ± 0.56.

Substance MIRTHLRRIYNS yielded an amyloid nucleation score of -1.26 ± 0.37.

The substance FAAHCFDFMIHVPMGPAENK gave an amyloid nucleation score of 3.69 ± 0.13.

As to VNRIASKWVYLLMNEFYSI, the amyloid nucleation score is -1.21 ± 0.61.

RFVKTGYTYDLVGTVLHCLS came in with an amyloid nucleation score of 5.97 ± 0.054.

Take VLWCGDLFAYLYMYVFSSNS: the amyloid nucleation score stood at 7.516 ± 0.051.

On to RTGRPSHDFRYGKQRFMVRP, for which the amyloid nucleation score came to 0.736 ± 0.74.

The substance HGYSNNTSWAYI returned an amyloid nucleation score of 0.436 ± 0.65.

FYGVNVRIRCKH had an amyloid nucleation score of 0.486 ± 0.66.

The substance PTYFWKQQCWVHYICWIMSY gave an amyloid nucleation score of -1.15 ± 0.35.

As to NSIGV, the amyloid nucleation score is -1.02 ± 0.55.

CRIFDTVSMLNSFYHGH: the amyloid nucleation score entry was “inactive”.

Consider NRQLWYPSINKYFFKSADPL, for which the amyloid nucleation score result is “inactive”.

FPGRSSCDHTAMWLL came in with an amyloid nucleation score of 0.732 ± 0.4.

In turn, FTVVIINISYTLSVLRERQM returned an amyloid nucleation score of 1.5 ± 0.14.

Substance HFVFI had an amyloid nucleation score of -1.05 ± 1.1.

TCNSSGPMMRCLIHWETRHR: the amyloid nucleation score came out at 5.17 ± 0.093.

MPGYYPMGSL yielded an amyloid nucleation score of 0.427 ± 0.74.

Substance TFTFDGRSSNFG showed an amyloid nucleation score of -0.343 ± 0.55.

As for CDANM, the amyloid nucleation score is 0.785 ± 0.51.

As to NQLKGYTIYWVL, the amyloid nucleation score was 4.45 ± 0.063.

Regarding SDARPYWIIYMSNQPYGIDS, the amyloid nucleation score entry was “inactive”.

Substance MYSVMLRTSYCTLARYMVLW had an amyloid nucleation score of 1.08 ± 0.11.

The substance LVAHPLYGSTKWGN returned an amyloid nucleation score of -0.596 ± 0.79.

With LKCHVLGVHCAL, the amyloid nucleation score was determined as 0.205 ± 0.19.

VIFLVDNCCMACDSLEPRTI: the amyloid nucleation score was 0.513 ± 0.25.

RVDGDYSSARRGGLISKWAF yielded an amyloid nucleation score of 0.804 ± 0.5.

As to LYRYSSG, the amyloid nucleation score result is “inactive”.

In the case of LYSWAFSS, the amyloid nucleation score result is “inactive”.

Take DQTWNWNVGIGFYRSYFLMY: the amyloid nucleation score entry is “inactive”.

Take LNTTLLTRPVLSSYRGSTAE: the amyloid nucleation score was determined as 1.23 ± 0.45.

MGGNLCVPRTLYSAIWLLSR had an amyloid nucleation score of -1.23 ± 0.44.

LAVVTCHCSSTCCSYLLNVG came in with an amyloid nucleation score of 3.38 ± 0.06.

For SYLLSKMQHFLMVTK, the amyloid nucleation score is -1.32 ± 0.53.

For the substance FRMSVKR, the amyloid nucleation score was found to be 0.309 ± 0.33.

As for LVYVWKDLAYMVLLHFRLFL, the amyloid nucleation score was -1.16 ± 1.1.

The substance YLVYKMNNGCLCNIFAPVTE came in with an amyloid nucleation score of 8.303 ± 0.064.

With WCSVLRDNKLSR, the amyloid nucleation score was -1.09 ± 0.45.

RDLSTGSPILEFHRCTRISG: the amyloid nucleation score was -0.172 ± 0.76.

With SWCLKRRTPHFVQVYHRNND, the amyloid nucleation score is -0.095 ± 0.26.

As for TAFSNRCLIQSQKSYLQFSV, the amyloid nucleation score result is “inactive”.

As for CLGRLMVYSAYYVHLYGVTI, the amyloid nucleation score was -1.29 ± 0.62.

TCNWGMDG had an amyloid nucleation score of 0.553 ± 0.62.

(Values after the supplement of paper PMC12042874.)
